Source: the supplement of paper PMC12764529
± gives the half width of the 95% confidence interval.

How the values were obtained:
[1] = folding stability dG unfold from chymotrypsin proteolysis; higher = more stable
Outline: (§1)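 K50 was inferred by Bayesian fitting of sequencing counts obtained after protease digestion of designed mini-proteins. Unfolding free energy was derived by comparison with a sequence-predicted unfolded-state K50 and a shared folded-state K50, for each protease or both combined. The mini-proteins were under 80 residues, had no cysteine, were carried in a PA-tagged cDNA display construct, and were kept only if AlphaFold2 dimer inter-PAE exceeded 15.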

[2] = folding stability dG unfold from trypsin proteolysis; higher = more stable
Outline: as §1

[3] = folding stability dG unfold (combined trypsin and chymotrypsin); higher = more stable
Outline: as §1

For “MKEITVTLPVPEEVLAAIRAGKPLPLEEIKERVKEEIAKRLGYKNVTIKSVKVEKLPDGSLVIKVKVEFLPS [r1_290_JUSTAS]”, the “folding stability dG unfold” value [1] was 15 ± 0.184 kJ/mol, the “folding stability dG unfold” value [2] was 22.8 ± 1.8 kJ/mol and the “folding stability dG unfold” value [3] was 17.4 ± 0.364 kJ/mol.
For “SAGGSAGGSAGGSMELKLKVVEKTETRSATPGEDEPLPGNSSVTYEGNTLTTTTLVLVPLSAGGSAGGSAGG [r7_506_JUSTAS]”, the “folding stability dG unfold” value [1] was -3.08 ± 1.84 kJ/mol, the “folding stability dG unfold” value [2] was -3.05 ± 1.17 kJ/mol and the “folding stability dG unfold” value [3] was -3.01 ± 1.42 kJ/mol.
For “SAGGSAVPAEAKKKVFLKPVKVNIPLPGNYEIVEIDPKTGKIVIKVPGSSKTLVVDLKSGKVYEFGSAGGSA [r15_452_TrMRF]”, the “folding stability dG unfold” value [1] was 7.46 ± 0.356 kJ/mol, the “folding stability dG unfold” value [2] was 4.96 ± 0.255 kJ/mol and the “folding stability dG unfold” value [3] was 6.32 ± 0.586 kJ/mol.
With “SAMTTTTSVDPASGSSTVTTTEIIEKPAGKLPNGTKLPPVKVKKTTTTTYAPNGTKLSTTTTTTPVPLGSAG [r14_246_JUSTAS]” the “folding stability dG unfold” value [1] was 2.8 ± 0.46 kJ/mol, the “folding stability dG unfold” value [2] was 4.21 ± 0.268 kJ/mol and the “folding stability dG unfold” value [3] was 3.66 ± 0.36 kJ/mol.
In the case of “SAGGSGMTETIKLSDPKNGLSVTVTVTFDPATGSKSVTITVESSEEAKEKVKALLEEKGLPVTVTSSAGGSA [r2_30_JUSTAS]”, the “folding stability dG unfold” value [1] is reported as 6.49 ± 0.343 kJ/mol, the “folding stability dG unfold” value [2] is reported as 3 ± 0.264 kJ/mol and the “folding stability dG unfold” value [3] is reported as 5.33 ± 0.339 kJ/mol.
With “SAGGSAGGSNTITVFMKVDDPEDALDEISEEIRDLFPPGIEVEIQPEQNEDKRGWVQVTIEFKSAGGSAGGS [r20_122_TrROS]” the “folding stability dG unfold” value [1] was 4.82 ± 1.38 kJ/mol, the “folding stability dG unfold” value [2] was 4.36 ± 0.264 kJ/mol and the “folding stability dG unfold” value [3] was 4.27 ± 0.837 kJ/mol.
In the case of “SAGIKEIAKKLGFPIHSVKPTEPDPENGKLKWTVIFRNEKNNYYVIEIDLDDPEKIEIERFPPGEEIPSAGG [r19_72_TrROS]”, the “folding stability dG unfold” value [1] is reported as 6.72 ± 0.502 kJ/mol, the “folding stability dG unfold” value [2] is reported as 5.05 ± 0.544 kJ/mol and the “folding stability dG unfold” value [3] is reported as 5.81 ± 0.879 kJ/mol.
For “SAGGSAGGSAPPVKTITVELVFFNPETQEVFVLRAEVRLLPDGTLEIRTEIERVKVEPGAVLLSAGGSAGGS [r12_116_TrROS_Hall]”, the “folding stability dG unfold” value [1] was 9.3 ± 0.46 kJ/mol, the “folding stability dG unfold” value [2] was 6.85 ± 0.402 kJ/mol and the “folding stability dG unfold” value [3] was 8.76 ± 0.628 kJ/mol.
For “PKIVEILDAKRTPDGSLVIKIKIEPPEPNVKIKVIVKTPNSFKVYEIDPTKTTLEITIPGNVTNPKIEVFGS [r1_428_TrMRF]”, the “folding stability dG unfold” value [1] was 11.1 ± 0.586 kJ/mol, the “folding stability dG unfold” value [2] was 10.5 ± 0.711 kJ/mol and the “folding stability dG unfold” value [3] was 10.6 ± 1.42 kJ/mol.
For “SAGGSAGGSAGGSIEIEITVELEDGYYLRISARFELNEDGSLKLEIKIELIKIEPGQELSAGGSAGGSAGGS [r10_241_TrROS_Hall]”, the “folding stability dG unfold” value [1] was 9.5 ± 0.418 kJ/mol, the “folding stability dG unfold” value [2] was 14.7 ± 2.01 kJ/mol and the “folding stability dG unfold” value [3] was 13.3 ± 1.34 kJ/mol.
For “SAGGPWRFEIDDIQPPEDGKVQIRIKLYNDDGEPIQELSIPMKGVDDVKITIPIGNQPIKIPITVVPASAGG [r13_427_TrROS]”, the “folding stability dG unfold” value [1] was 2.57 ± 0.92 kJ/mol, the “folding stability dG unfold” value [2] was -0.545 ± 1.13 kJ/mol and the “folding stability dG unfold” value [3] was 1.51 ± 0.795 kJ/mol.
For “SAGSAAIKALLEKHPKPEVIEVTRLPGSGTLVIKVDDEDHVVPTPPGGFTETLTVDENGNVLSVEPHPASAG [r5_329_JUSTAS]”, the “folding stability dG unfold” value [1] was 6.9 ± 0.268 kJ/mol, the “folding stability dG unfold” value [2] was 7.49 ± 0.46 kJ/mol and the “folding stability dG unfold” value [3] was 7.29 ± 0.586 kJ/mol.
In the case of “SAGGGMTPTITVTVHYPGETVTITLSSIEEALEYLKKQGLPINPTHSDPNTLVIEFPDGRTVTITLSSAGGS [r8_365_JUSTAS]”, the “folding stability dG unfold” value [1] is reported as 17.4 ± 0.669 kJ/mol, the “folding stability dG unfold” value [2] is reported as 15.3 ± 0.628 kJ/mol and the “folding stability dG unfold” value [3] is reported as 16.7 ± 0.628 kJ/mol.
With “SAGKMLVVRIEVEVEVEVTVEKDGKKETFKEKKKLTLTLVFESEEEAEAAKKELEKLFPDLKIEVVPLPSAG [r5_453_TrROS_Hall]” the “folding stability dG unfold” value [1] was 19.1 ± 0.669 kJ/mol, the “folding stability dG unfold” value [2] was 18.5 ± 1.97 kJ/mol and the “folding stability dG unfold” value [3] was 19 ± 0.837 kJ/mol.
In the case of “SAGGMKKTVTITITEELPTETGEYKTKTVTTTLTVTPPPPEVTEEEKLREKALKENPNVSPDDPKALLSAGG [r13_136_JUSTAS]”, the “folding stability dG unfold” value [1] is reported as 2.24 ± 0.46 kJ/mol, the “folding stability dG unfold” value [2] is reported as -3.97 ± 2.51 kJ/mol and the “folding stability dG unfold” value [3] is reported as 0.642 ± 0.586 kJ/mol.
With “SMIVRVEGDKTTITLTLTTTTTLTDPTNPSLTTTVSKTVPRTLTLDPNDPAALAALIAALPPGAVPTIVGSA [r9_476_JUSTAS]” the “folding stability dG unfold” value [1] was 7.34 ± 0.381 kJ/mol, the “folding stability dG unfold” value [2] was 3.04 ± 0.167 kJ/mol and the “folding stability dG unfold” value [3] was 5.97 ± 0.397 kJ/mol.
With “SAGGSAGGSAGGKTYTAEELRSLPPGAKITLADGKVIEVSIEQLEKEIKPGDTVRIERVPSAGGSAGGSAGG [r7_643_TrROS_Hall]” the “folding stability dG unfold” value [1] was -1.69 ± 0.711 kJ/mol, the “folding stability dG unfold” value [2] was 2.27 ± 0.18 kJ/mol and the “folding stability dG unfold” value [3] was 0.719 ± 0.377 kJ/mol.
For “SAGGSAPKTVTFTTPKGYPITVTPGDRTVTLTHPDRPLATFDVPPDVPTFTITLPDGDTATITVDDSAGGSA [r2_385_TrMRF]”, the “folding stability dG unfold” value [1] was -1.71 ± 0.795 kJ/mol, the “folding stability dG unfold” value [2] was -2.43 ± 0.368 kJ/mol and the “folding stability dG unfold” value [3] was -1.87 ± 0.46 kJ/mol.
In the case of “SAGGSAGGSAGMDKDGKWRRIPFMFVNPGDGYIFKWEIWIYPGGNIELEMEIIGPIKPGASAGGSAGGSAGG [r11_226_TrROS]”, the “folding stability dG unfold” value [1] is reported as 20.1 ± 0.255 kJ/mol, the “folding stability dG unfold” value [2] is reported as 13.1 ± 0.544 kJ/mol and the “folding stability dG unfold” value [3] is reported as 17.9 ± 0.46 kJ/mol.
In the case of “SAGGSTVTVTVRRRVRVEVNGELREFEVEVTVTVRLPPPPPVIELPPEQVTRIEWDEETQELRVEVDSAGGS [r8_28_TrROS_Hall]”, the “folding stability dG unfold” value [1] is reported as 14 ± 0.264 kJ/mol, the “folding stability dG unfold” value [2] is reported as 12.5 ± 0.879 kJ/mol and the “folding stability dG unfold” value [3] is reported as 13.7 ± 0.879 kJ/mol.
In the case of “SAGGMISEEDIEAAAKAIVEAAKNGDPERIEEEYARLEEALEEAEKEGDPERRGRLAKAVEAAKKLLGSAGG [r13_137_TrMRF]”, the “folding stability dG unfold” value [1] is reported as 7.31 ± 0.18 kJ/mol, the “folding stability dG unfold” value [2] is reported as 5.99 ± 0.0837 kJ/mol and the “folding stability dG unfold” value [3] is reported as 6.88 ± 0.502 kJ/mol.
